Data: PMC4876393, “Structure of the Dictyostelium Myosin-II Heavy Chain Kinase A (MHCK-A) α-kinase domain apoenzyme reveals a novel autoinhibited conformation” (Scientific Reports, 2016)
Non-standard residues stand in square brackets, D forms with d. No end group written: not given here. pT = C[C@@H](OP(=O)(O)O)[C@H](N)C(=O)O

Tests used:
[1] = test system: T1, Nc1ncnc2c1ncn2[C@@H]1O[C@H](COP(=O)(O)OP(=O)(O)OP(=O)(O)O)[C@@H](O)[C@H]1O; assay: Radiometric kinase assay with [γ-32P]ATP and 20 μM myelin basic protein as phosphate acceptor (P81 paper) at 22 °C in 2 mM MgCl2, 1 mM dithiothreitol, 20 mM TES, pH 7.0.; type: biochemical
T1 construct: A-CAT: alpha-kinase domain and Thr825 autophosphorylation site of MHCK-A; expressed in E. coli
Experimental: (§1) Assays were carried out at 22 °C in a buffer containing 2 mM MgCl2, 1 mM dithiothreitol and 20 mM TES, pH 7.0. Kinase assays contained 20 μM myelin basic protein (MBP), 0.5–2 μM A-CAT and 200 μM [γ-^32P]ATP (specific activity 100 cpm/pmol). At each time point, 20 μl aliquots of the reaction mixture were spotted onto squares of Whatman P81 phosphocellulose paper, which were then washed 1% phosphoric acid, immersed in ScintiVerse Universal LS Mixture (Fisher Scientific), and counted using a Beckman LS 9000 scintillation counter. Assays to measure A-CAT-Δ809 activity in the presence of the QQG(p)TMVMPD and QQG(p)TMSMPD peptides were carried out as described. ATPase activity was assayed using 250 μM ATP and release of inorganic phosphate (Pi) was measured using the Pi ColorLock Gold phosphate detection system (Innova Biosciences). Data from the initial linear portion of the time courses were used to calculate kinase and ATPase activity. Nucleotide binding assays using mant-ATP and mant-ADP were carried out as previously described. Results represent the mean and standard deviation of at least 3 separate experiments.

[2] = test system: T1, Nc1ncnc2c1ncn2[C@@H]1O[C@H](COP(=O)(O)OP(=O)(O)OP(=O)(O)O)[C@@H](O)[C@H]1O; assay: ATPase assay by inorganic phosphate release (Pi ColorLock Gold) at 22 °C in 2 mM MgCl2, 1 mM dithiothreitol, 20 mM TES, pH 7.0.; type: biochemical
Experimental: as §1

[3] = test system: T2, Nc1ncnc2c1ncn2[C@@H]1O[C@H](COP(=O)(O)OP(=O)(O)OP(=O)(O)O)[C@@H](O)[C@H]1O; assay: Radiometric kinase assay with [γ-32P]ATP and 20 μM myelin basic protein as phosphate acceptor (P81 paper) at 22 °C in 2 mM MgCl2, 1 mM dithiothreitol, 20 mM TES, pH 7.0.; type: biochemical
T2 construct: A-CAT: alpha-kinase domain and Thr825 autophosphorylation site of MHCK-A
Experimental: as §1

[4] = test system: T2, Nc1ncnc2c1ncn2[C@@H]1O[C@H](COP(=O)(O)OP(=O)(O)OP(=O)(O)O)[C@@H](O)[C@H]1O; assay: ATPase assay by inorganic phosphate release (Pi ColorLock Gold) at 22 °C in 2 mM MgCl2, 1 mM dithiothreitol, 20 mM TES, pH 7.0.; type: biochemical
Experimental: as §1

[5] = target: A-CAT-Δ809, truncated A-CAT that lacks the activating Thr825 site of autophosphorylation (Dictyostelium)
[6] = substrate: Nc1ncnc2c1ncn2[C@@H]1O[C@H](COP(=O)(O)OP(=O)(O)OP(=O)(O)O)[C@@H](O)[C@H]1O; assay: ATPase assay by inorganic phosphate release (Pi ColorLock Gold) at 22 °C in 2 mM MgCl2, 1 mM dithiothreitol, 20 mM TES, pH 7.0.; type: biochemical
Experimental: as §1

[7] = substrate: Nc1ncnc2c1ncn2[C@@H]1O[C@H](COP(=O)(O)OP(=O)(O)OP(=O)(O)O)[C@@H](O)[C@H]1O; assay: Radiometric kinase assay with [γ-32P]ATP and 20 μM myelin basic protein as phosphate acceptor (P81 paper) at 22 °C in 2 mM MgCl2, 1 mM dithiothreitol, 20 mM TES, pH 7.0.; type: biochemical
Experimental: as §1

[8] = test system: myelin basic protein (MBP); assay: Kinase activity of A-CAT and mutants towards myelin basic protein; type: biochemical; settings: 20 μM MBP, 0.5–2 μM A-CAT, [γ-^32P]ATP; 22 °C, pH 7.0; mean and standard deviation of at least 3 separate experiments
Experimental: as §1

[9] = ATPase activity of A-CAT and mutants (phosphate release); type: biochemical; settings: 22 °C, 2 mM MgCl2, 20 mM TES, pH 7.0; Pi ColorLock Gold phosphate detection; mean and standard deviation of at least 3 separate experiments
Experimental: as §1

## D663A (Dictyostelium discoideum; D663A)
[1]
  Km: 54 ± 25 µM
  kcat: 0.00105 ± 0.000117 s⁻¹
[2]
  Km: 21 ± 5 µM
  kcat: 0.0167 ± 0.00333 s⁻¹

## D663S (Dictyostelium discoideum; D663S)
[3]
  Km: 29 ± 16 µM
  kcat: 0.00103 ± 0.000117 s⁻¹
[4]
  Km: 31 ± 7 µM
  kcat: 0.00733 ± 0.00267 s⁻¹

## Y647A (Dictyostelium discoideum; Y647A)
[3]
  Km: 162 ± 38 µM
  kcat: 0.00367 ± 0.000333 s⁻¹
[4]
  kcat: 0.00483 ± 0.00117 s⁻¹

## Y647F (Dictyostelium discoideum; Y647F)
[3]
  Km: 65 ± 35 µM
  kcat: 0.00045 ± 0.000117 s⁻¹
[4]
  Km: 64 ± 2 µM
  kcat: 0.00633 ± 0.00117 s⁻¹

## QQG[pT]MSMPD [QQG(p)TMSMPD phosphopeptide]
[5]
  kinase activity of A-CAT-Δ809 assayed in the presence of the peptide; Kd from a hyperbolic curve fit: 98 µM

## QQG[pT]MVMPD [QQG(p)TMVMPD phosphopeptide]
[5]
  kinase activity of A-CAT-Δ809 assayed in the presence of the peptide; Kd from a hyperbolic curve fit: 38 µM

B1: A-CAT WT (Dictyostelium discoideum) (protein)
chain: ISSETGEMGILWEFDPIINKWIRLSMKLKVERKPFAEGALREAYHTVSLGVGTDENYPLGTTTKLFPPIEMISPISKNNEAMTQLKNGTKFVLKLYKKEAEQQASRELYFEDVKMQMVCRDWGNKFNQKKPPKKIEFLMSWVVELIDRSPSSNGQPILCSIEPLLVGEFKKNNSNYGAVLTNRSTPQAFSHFTYELSNKQMIVVDIQGVDDLYTDPQIHTPDGKGFGLGNLGKAGINKFITTHKCNAVCALLDLDVKLGGVLSGNNKKQLQQGTMVMPDILPELMPSDNT
notes: A-CAT: alpha-kinase domain and Thr825 autophosphorylation site of MHCK-A; expressed in E. coli
[6]
  Km: 35 ± 4 µM
  kcat: 0.0317 ± 0.00167 s⁻¹
[7]
  Km: 23 ± 5 µM
  kcat: 0.0967 ± 0.00667 s⁻¹

B2: WT: α-kinase domain and Thr825 autophosphorylation site of MHCK-A (protein)
chain: ISSETGEMGILWEFDPIINKWIRLSMKLKVERKPFAEGALREAYHTVSLGVGTDENYPLGTTTKLFPPIEMISPISKNNEAMTQLKNGTKFVLKLYKKEAEQQASRELYFEDVKMQMVCRDWGNKFNQKKPPKKIEFLMSWVVELIDRSPSSNGQPILCSIEPLLVGEFKKNNSNYGAVLTNRSTPQAFSHFTYELSNKQMIVVDIQGVDDLYTDPQIHTPDGKGFGLGNLGKAGINKFITTHKCNAVCALLDLDVKLGGVLSGNNKKQLQQGTMVMPDILPELMPSDNT
modifications: phosphothreonine at 612 (P-Thr612); phosphoaspartate at 663 (P-Asp663)
notes: α-kinase domain and Thr825 autophosphorylation site of MHCK-A
[8]
  Kinase Activity kcat: 0.0967 ± 0.0067 s⁻¹
[9]
  ATPase Activity kcat: 0.0317 ± 0.0017 s⁻¹
